Reference: patent publication US20050244406A1 (G2 THERAPIES, published 2005)
Numbering of substitutions follows the chain as printed.

B1: MAb 7F3 (antibody, V domains shown)
VH: QVQLQQSGPELVKPGASVKISCKASGYAFSNSWMNWVKQRPGKGLEWIGRIYPGDGDTKYNGKFKGKATLTADKSSSTAYMQLSSLTSEDSAVYFCARFLLISTVTAVDYWGQGTTLTVSS
VL: DVVMTQSPLSLPVSLGNQASISCRSSQSLVHSNGNTYLHWYLQKPGQSPKLLIYKVSNRFSGVPDRFSGSGSGTDFSLKISRVEAEDLGVYFCSQSTLVPLTFGAGTKLELK
notes: Murine monoclonal antibody from hybridoma ECACC 00110609; also called monoclonal antibody 7F3
B2: MAb 12D4 (antibody, IgG3, V domains shown)
VH: QVQLKESGPGLVAPSQSLSITCTVSGFSLTSYGVDWVRQSPGKGLEWLGVIWGVGSTNYNSALKSRLSISKDNSKSQVFLKMNSLQTDDAAMYYCASHYGYDGLGFAYWGQGTLVTVSV
VL: B1 VL with S7T, N17D, N33S, D75H, S77T, V90I, L101P, A105G, L111I
notes: Murine monoclonal antibody from hybridoma ECACC 02090227; also called 12D4-P9
B3: MAb 6C12 (antibody, IgG3, V domains shown)
VH: QVQLQQSGPEVVKPGASVKISCKASGYAFSRSWMNWVKQRPGKGLEWIGRIDAGDGDTKYNGKFKGKATLTADKSSSTAYMQLSSLTSEDSAVYFCASLLITTVVGAMDYWGQGTSVTVSS
VL: B1 VL with S7I, N17D, A19T, V30I, S77T, L88M, L98H, L101P, A105G, L111I
notes: Murine monoclonal antibody from hybridoma ECACC 02090226; also called 6C12 M12

Legend:
[1] = biological target: T1, human C5aR (human, UniProt P21730 1-350); assay: cell-based or functional assay
T1 chain: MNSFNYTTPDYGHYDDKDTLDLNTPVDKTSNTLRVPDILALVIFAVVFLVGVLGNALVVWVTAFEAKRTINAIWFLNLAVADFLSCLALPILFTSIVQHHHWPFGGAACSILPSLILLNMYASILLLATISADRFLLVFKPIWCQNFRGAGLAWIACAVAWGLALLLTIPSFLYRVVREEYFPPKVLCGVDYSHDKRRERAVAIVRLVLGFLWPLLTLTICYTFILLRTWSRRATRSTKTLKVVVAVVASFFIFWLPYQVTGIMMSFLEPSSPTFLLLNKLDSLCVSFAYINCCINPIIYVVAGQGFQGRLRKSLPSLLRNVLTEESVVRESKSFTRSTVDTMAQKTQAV

[2] = biological target: T2, C5aR N-terminal peptide (residues 9-29), PEPI (human); assay: ELISA, PEPI coated at 1 µg/ml
T2 construct: Synthetic peptide (Biosource), residues 9-29 of C5aR; also called C5aR N-terminal peptide 9-29
T2 peptide: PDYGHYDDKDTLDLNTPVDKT
Protocol: ELISAs were performed as described in Current Protocols in Immunology (Unit 2.1) (Edited by J. F. Coligan, A. M. Kruisbeek, D. B. Margulies, E. M. Shevach and W. Strober), John Wiley and Sons, New York. Briefly, 96-well flat bottom ELISA plates (Maxisorp; Nunc) were coated with 1 μg/ml protein (PEPI or OPG) in PBS at 37° C. for 1 hr, then blocked with BSA at 4° C. overnight. The plates were then washed, incubated with antibodies, washed and incubated with peroxidase-conjugated sheep anti-mouse IgG antibody. The substrate used was TMB substrate reagent (PharMingen).
ELISA assays were performed as described above to measure the reactivity of MAbs 6C12, 12D4, 7F3, with PEPI and OPG. OPG is a member of the TNF-receptor superfamily which binds specifically to its ligand TNFSF11/OPGL. More specifically, OPG is an osteoblast-secreted decoy receptor that functions as a negative regulator of bone resorption.
MAbs 6C12, 12D4 and 7F3 were used in the ELISA as purified proteins at a concentration of 1 μg/mL. MAb 9C1 (which is specific for OPG) and MAb 11B9 (which recognises PEPI) were used as positive controls. These control MAbs were used in the form of undiluted tissue culture supernatant.

[3] = biological target: T3, CX3CR1 (V28) (UniProt P49238 1-355, limits assumed); assay: flow cytometry on transfected L1.2 cells
T3 construct: whole, on cells; also called L1.2 V28
T3 sequence (looked up): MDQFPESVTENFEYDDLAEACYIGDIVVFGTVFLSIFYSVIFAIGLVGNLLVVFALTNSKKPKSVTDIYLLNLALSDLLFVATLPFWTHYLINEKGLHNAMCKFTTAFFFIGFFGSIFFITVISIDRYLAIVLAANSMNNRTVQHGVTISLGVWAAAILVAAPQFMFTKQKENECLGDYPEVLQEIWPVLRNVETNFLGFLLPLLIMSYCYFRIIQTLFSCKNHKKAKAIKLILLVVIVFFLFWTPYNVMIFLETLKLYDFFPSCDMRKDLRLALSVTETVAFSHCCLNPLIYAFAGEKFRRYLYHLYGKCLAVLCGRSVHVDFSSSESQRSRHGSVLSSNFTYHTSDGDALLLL

[4] = biological target: T4, CXCR2 (UniProt P25025 1-360, limits assumed); assay: flow cytometry on transfected L1.2 cells
T4 construct: whole, on cells; also called L1.2CXCR2
T4 sequence (looked up): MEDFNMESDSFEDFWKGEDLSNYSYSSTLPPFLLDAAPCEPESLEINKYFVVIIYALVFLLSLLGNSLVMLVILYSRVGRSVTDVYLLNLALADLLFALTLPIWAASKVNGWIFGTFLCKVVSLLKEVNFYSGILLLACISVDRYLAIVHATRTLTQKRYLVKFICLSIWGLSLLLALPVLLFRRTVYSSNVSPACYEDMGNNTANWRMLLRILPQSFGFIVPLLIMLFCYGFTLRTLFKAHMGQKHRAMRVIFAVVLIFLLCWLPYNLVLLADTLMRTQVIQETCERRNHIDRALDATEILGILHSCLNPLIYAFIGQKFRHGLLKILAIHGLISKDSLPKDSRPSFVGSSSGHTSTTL

[5] = biological target: T1, human C5aR; assay: flow cytometry on L1.2 C5aR transfectants
[6] = biological target: T1, human C5aR; assay: flow cytometry on L1.2 cells with human C5aR, MAb 50 ug/ml, with PEPI 1-100 µM
Protocol: Anti-C5aR MAbs were added at 50 ug/ml, to a C5aR N-terminal synthetically produced peptide (residues 9-29) known as “PEPI” (Biosource; Eldridge) at concentrations ranging from 1 to 100 μM. Mouse L1.2 cells transfected with human C5a receptor and resuspended in 1% bovine serine albumin (BSA; GibcoBRL) (1×10^7/ml) were then added to give a total volume of 100 μl. The cells were incubated for 30 min at 4° C. and washed once with 0.1% BSA. Fluorescein (FITC) conjugated, sheep anti-mouse IgG, F(ab′)2 (Jackson Immunoresearch Laboratories Inc.) was used as a secondary Ab (1:200) and incubated for 15 min at 4° C., followed by an additional washing step with 0.1% BSA The cells were resuspended in 0.1% BSA and analysed by flow cytometry.

Binder	neutrophil migration towards C5a [1] [fold reduction]	binding result [2]	binding result [3]	binding result [4]	binding result [5]	binding result [6]
B1	140	no binding (tested: 1 µg/mL)	no binding	no binding		
B2		no binding (tested: 1 µg/mL)	no binding	no binding	binds	
B3		no binding (tested: 1 µg/mL)	no binding	no binding		binds
